In experiment [1] the target is T1, rHuman Erythropoietin R/Fc Chimera, CF (R&D Systems Cat#963-ER) (human, UniProt P19235 25-250).
T1 construct: Bought Fc chimera; also called EPO R/Fc; Epo R; Fc part of the bought chimera not given
T1 sequence: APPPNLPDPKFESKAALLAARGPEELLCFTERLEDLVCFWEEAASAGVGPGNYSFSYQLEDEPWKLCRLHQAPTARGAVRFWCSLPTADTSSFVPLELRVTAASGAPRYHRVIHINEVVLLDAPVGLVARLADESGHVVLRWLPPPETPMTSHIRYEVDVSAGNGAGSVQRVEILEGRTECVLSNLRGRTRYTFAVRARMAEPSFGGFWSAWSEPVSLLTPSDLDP
Kind of experiment: ECL (MSD Multi-Spot) binding assay, antigen spotted on plate; Fab 6 nM; blank spot 191.

Experiment [2] has as its target T2, Recombinant Human DLL4 (R&D Systems Cat#1506-D4/CF) (human, UniProt Q9NR61 27-524).
T2 construct: Bought recombinant protein; also called delta-like protein 4; rHuman DLL4
Described as above.

Experiment [3] concerns the target T3, rHuman ErbB2/Fc Chimera, CF (R&D Systems Cat#1129-ER) (human, UniProt P04626 23-652).
T3 construct: Bought Fc chimera; also called HER2/neu; human epidermal growth factor 2 receptor; Fc part of the bought chimera not given
The description is as above.

The target in experiment [4] is T4, rHuman EGF R/Fc Chimera, CF (R&D Systems Cat#344-ER) (human, UniProt P00533 25-645).
T4 construct: Bought Fc chimera; also called epidermal growth factor receptor; Fc part of the bought chimera not given
The experiment is described as above.

In experiment [5] the target is T5, rHuman Notch-1/Fc Chimera, CF (R&D Systems Cat#3647-TK) (human, UniProt P46531 19-526).
T5 construct: Bought Fc chimera; Fc part of the bought chimera not given
The experiment is described as above.

The target in experiment [6] is T6, rHuman CD44/Fc Chimera, CF (R&D Systems Cat#3660-CD) (human, UniProt P16070 21-220).
T6 construct: Bought Fc chimera; Fc part of the bought chimera not given
Described as above.

Experiment [7] concerns the target T7, rHuman Erythropoietin R/Fc Chimera, CF (R&D Systems Cat#963-ER) (human, UniProt P19235 25-250).
T7 construct: Bought reagent; also called EPO R/Fc; Epo R; Fc part of the bought chimera not given
T7 sequence: T1 sequence
The experiment in a line: ECL (MSD multi-spot), antigen spotted on plate; Fab 88.1 nM; blank spot 301.

Experiment [8] deals with T8, Recombinant Human DLL4 (R&D Systems Cat#1506-D4/CF) (human, UniProt Q9NR61 27-524).
T8 construct: Bought reagent; also called delta-like protein 4
The experiment is described as above.

The target of experiment [9] is T9, rHuman ErbB2/Fc Chimera, CF (R&D Systems Cat#1129-ER) (human, UniProt P04626 23-652).
T9 construct: Bought reagent; also called HER2/neu; human epidermal growth factor 2 receptor; Fc part of the bought chimera not given
The description is as above.

The target in experiment [10] is T10, rHuman EGF R/Fc Chimera, CF (R&D Systems Cat#344-ER) (human, UniProt P00533 25-645).
T10 construct: Bought reagent; also called epidermal growth factor receptor; Fc part of the bought chimera not given
The description is as above.

Experiment [11] concerns the target T11, rHuman HGF R/c-MET/Fc Chimera, CF (R&D Systems Cat#358-MT/CF) (human, UniProt P08581 25-932).
T11 construct: Bought reagent; also called HGF R/Fc; hepatocyte growth factor receptor; Fc part of the bought chimera not given
Described as above.

Experiment [12] deals with T12, rHuman Notch-1/Fc Chimera, CF (R&D Systems Cat#3647-TK) (human, UniProt P46531 19-526).
T12 construct: Bought reagent; Fc part of the bought chimera not given
The experiment is described as above.

Experiment [13] addresses T13, rHuman CD44/Fc Chimera, CF (R&D Systems Cat#3660-CD) (human, UniProt P16070 21-220).
T13 construct: Bought reagent; Fc part of the bought chimera not given
The description is as above.

Experiment [14] has as its target T14, rHuman IGF-1 sR (IGF-1 sR), CF (R&D Systems Cat#391-GR) (human, UniProt P08069 31-932).
T14 construct: Bought soluble receptor; also called insulin-like growth factor-1 soluble receptor; IGF-R1
The description is as above.

For experiment [15], the target named is T15, rHuman P-Cadherin/Fc Chimera, CF (R&D Systems Cat#861-PC) (human, UniProt P22223 108-654).
T15 construct: Bought reagent; also called CDH3; Fc part of the bought chimera not given
Described as above.

The target in experiment [16] is T2, Recombinant Human DLL4 (R&D Systems …). Kind of experiment: ECL (MSD Multi-Spot) binding assay, antigen spotted on plate; Fab 480 nM; blank spot 362.
The target in experiment [17] is T5, rHuman Notch-1/Fc Chimera, CF (R&D …). The experiment is described as above.
In experiment [18] the target is T6, rHuman CD44/Fc Chimera, CF (R&D Systems …). The description is as above.
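Further: blank spot per well as comparator with Hit at signal to blank ratio of 4 or more.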

B1: Fab VH5-51_IGHD5-18*01>3_IGHJ4*01 & V3-4_IGLJ1*01 (Fab, V domains shown)
VH: EVQLVQSGAEVKKPGESLKISCKGSGYSFTSYWIGWVRQMPGKGLEWMGIIYPGDSDTRYSPSFQGQVTISADKSISTAYLQWSSLKASDTAMYYCARRGYSYGYDYFDYWGQGTLVTVSS
VL: QTVVTQEPSFSVSPGGTVTLTCGLSSGSVSTSYYPSWYQQTPGQAPRTLIYSTNTRSSGVPDRFSGSILGNKAALTITGAQADDESDYYCVLYMGSGISYVFGTGTKVTVL
notes: Tested as a Fab made in E. coli; also called IGHV5-51*03
Consider B1, for which the ECL signal is 548 in experiment [1]; 1950 in experiment [2]; 873 in experiment [3]; 742 in experiment [4]; 464 in [5]; 547 in [6].

B2: Fab VH1-46_IGHD3-10*01_IGHJ4*01 & B3_IGKJ1*01 (Fab, V domains shown)
VH: QVQLVQSGAEVKKPGASVKVSCKASGYTFTSYYMHWVRQAPGQGLEWMGIINPSGGSTSYAQKFQGRVTMTRDTSTSTVYMELSSLRSEDTAVYYCAREYYYGSGSYYNDYFDYWGQGTLVTVSS
VL: not shown
notes: also called IGHV1-46*01
As to B2, the ECL signal in experiment [7] came out at 3370; in experiment [8], 434; in experiment [9], 200; in [10], 376; in [11], 392; in experiment [12], 440. Moreover, the values for the ECL signal in experiment [13], in experiment [14] and in experiment [15] were 340, 273 and 278, respectively.

B3: Fab VH6-1_IGHD3-3*01_IGHJ4*01 & V4-3_IGLJ4*01 (Fab, V domains shown)
VH: QVQLQQSGPGLVKPSQTLSLTCAISGDSVSSNSAAWNWIRQSPSRGLEWLGRTYYRSKWYNDYAVSVKSRITINPDTSKNQFSLQLNSVTPEDTAVYYCAREYYDFWSGYYTDYFDYWGQGTLVTVSS
VL: QPVLTQPTSLSASPGASARLTCTLRSGINLGSYRIFWYQQKPESPPRYLLSYYSDSSKHQGSGVPSRFSGSKDASSNAGILVISGLQSEDEADYYCMIWHSSASFVFGGGTQLIIL
notes: Tested as a Fab made in E. coli; also called IGHV6-1*01
B3: the ECL signal came out at 1530 in experiment [16], 545 in experiment [17] and 541 in experiment [18].

Source of the values: patent US20120058906A1 (published 2012).
